Stoichiometry N data for one substance are collected here from publication PMC5345815.

This test concerns the target recombinant gp41 of HIV-1 (ectodomain, amino acids 533-684, from clone pNL4-3), secreted from 293 cells (HIV-1 (infectious molecular clone pNL4-3)). The test can be described thus: native gel or EMSA; Novex Native PAGE 4-20% Tris-Glycine gradient gel of purified gp41, Western blot with 2F5; single band below the 170 kDa marker. (In EMSA bound probe runs differently from free probe, usually more slowly.)

For “recombinant gp41 of HIV-1 (ectodomain, amino acids 533-684, from clone pNL4-3), secreted from 293 cells (domain or fragment)”, the stoichiometry N (in general, a count of units in the complex or per binding partner) came to 3.
